Assay results taken from publication PMC11509930, “Improving Hydrolytic Activity and Enantioselectivity of Epoxide Hydrolase from Phanerochaete chrysosporium by Directed Evolution” (Molecules, 2024).
Numbering of substitutions follows the chain as printed. Names and notes keep the numbering of the source.

B1: PchEHA (epoxide hydrolase) (Phanerodontia chrysosporium; G14A/K291R/Y163H) (protein)
chain: MDASLFKDFKTSRAFNYHYFYSPAKGPRPTLFFLHGNPSVATDWAQIVPHFTSRGYGVLAPDMLGYGDTDKPTDPALYVSSGMCRNLVDLLDHEGLEKVIAIGHDWGCLSVSRLASYYPERVIAYAFLAASFIGPIPPIPFDAFLEYIKQQVGYELYGYWKFHSEPGLDQFVRDHLDTFLSILWPSDPAVWKTRLAPTGALKQSALEGWTAPLAPYITEEFKKHHVEVFNKNGFEAPACYYRIMTSGLQAEDDKQILPERAVPPKDAPVFFGAANKDYICIPALAYATFKRDEWKDHKITIKEYDADHWLILSHADQVSRDLEAWIEGFASGGQ
notes: catalytic triad D105/H308/D277
B2: PchEHA (epoxide hydrolase) (Phanerodontia chrysosporium; E251G/Y163H) (protein)
chain: B1 chain with A14G, E251G, R291K
notes: as for B1
B3: PchEHA (epoxide hydrolase) (Phanerodontia chrysosporium) (protein)
chain: B1 chain with A14G, H163Y, R291K
notes: as for B1
B4: PchEHA (epoxide hydrolase) (Phanerodontia chrysosporium; E251G/G14A/K291R) (protein)
chain: B1 chain with H163Y, E251G
notes: as for B1
B5: PchEHA (epoxide hydrolase) (Phanerodontia chrysosporium; C108S/G14A/K291R) (protein)
chain: B1 chain with C108S, H163Y
notes: as for B1
B6: PchEHA (epoxide hydrolase) (Phanerodontia chrysosporium; A24T/E251G) (protein)
chain: B1 chain with A14G, A24T, H163Y, E251G, R291K
notes: as for B1

Experiments:
purified protein [1] = substrate: c1ccc([C@@H]2CO2)cc1; test: purified protein; format: biochemical, Phanerodontia chrysosporium; settings: 10-80 mM SO, 37 °C, buffer pH 8.0
purified protein [2] = substrate: c1ccc([C@H]2CO2)cc1; test: purified protein; format: biochemical, Phanerodontia chrysosporium; settings: 10-80 mM SO, 37 °C, buffer pH 8.0

| Protein | Km (purified protein [1]) | kcat (purified protein [1]) | kcat/Km (purified protein [1]) | Km (purified protein [2]) | kcat/Km (purified protein [2]) |
| --- | --- | --- | --- | --- | --- |
| B1 | 20.36 ± 1.34 mM | 2480 ± 52.4 s⁻¹ | 122000 M⁻¹ s⁻¹ | 57.82 ± 7.75 mM | 36000 M⁻¹ s⁻¹ |
| B2 | 14.16 ± 1.19 mM | 2350 ± 52.3 s⁻¹ | 166000 M⁻¹ s⁻¹ | 30.39 ± 2.99 mM | 32500 M⁻¹ s⁻¹ |
| B3 | 25.75 ± 2.08 mM | 1740 ± 50.8 s⁻¹ | 67500 M⁻¹ s⁻¹ | 39.23 ± 4.49 mM | 34400 M⁻¹ s⁻¹ |
| B4 | 22.6 ± 1.75 mM | 2250 ± 59 s⁻¹ | 99600 M⁻¹ s⁻¹ | 41.96 ± 2.07 mM | 38300 M⁻¹ s⁻¹ |
| B5 | 21.71 ± 2.6 mM | 3020 ± 120 s⁻¹ | 139000 M⁻¹ s⁻¹ | 51.04 ± 2.04 mM | 19700 M⁻¹ s⁻¹ |
| B6 | 26.28 ± 3.79 mM | 1660 ± 87.3 s⁻¹ | 63100 M⁻¹ s⁻¹ | 43.98 ± 3.94 mM | 25900 M⁻¹ s⁻¹ |
